Biological target: Bd-cys-S-fluorescein conjugate (Staphylococcus aureus)
Assay: ELISA

Substance | net absorbance at 405 nm (net absorbance (405 nm))
HRP-conjugated guinea pig IgG (antibody) | 0.91
HRP-conjugated rabbit IgG (antibody) | 1.13
